Earlier results as cited in paper PMC3792554.
pKd: −log10 of the molar value.

Target: IL-18 (Homo sapiens) (UniProt Q14116)
Sequence (Q14116 37-193): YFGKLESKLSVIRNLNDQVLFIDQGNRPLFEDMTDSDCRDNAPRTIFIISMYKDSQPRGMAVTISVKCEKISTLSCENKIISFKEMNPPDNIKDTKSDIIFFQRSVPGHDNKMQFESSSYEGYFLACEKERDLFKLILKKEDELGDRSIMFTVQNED

IL-18BP, sequence (O95998 31-194): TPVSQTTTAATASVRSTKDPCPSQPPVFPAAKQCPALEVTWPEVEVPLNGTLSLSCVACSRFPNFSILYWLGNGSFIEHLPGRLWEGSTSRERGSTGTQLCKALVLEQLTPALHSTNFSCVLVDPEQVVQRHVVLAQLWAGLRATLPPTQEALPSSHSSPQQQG

IL-18BP (from UniProt O95998)
pKd: 9.40
